{
  "source": "patent US20230052646A1",
  "about": "(JJP BIOLOGICS SP Z O O, published 2023)",
  "target": "T1, membrane-bound full-length human HVEM on stable HVEM-transfected HEK293F cells (clone no. 128) (human, UniProt Q92956 39-283)",
  "T1 construct": "The same cDNA was also expressed on Sf9 insect cells; also called TNFRSF14; CD270",
  "T1 sequence": "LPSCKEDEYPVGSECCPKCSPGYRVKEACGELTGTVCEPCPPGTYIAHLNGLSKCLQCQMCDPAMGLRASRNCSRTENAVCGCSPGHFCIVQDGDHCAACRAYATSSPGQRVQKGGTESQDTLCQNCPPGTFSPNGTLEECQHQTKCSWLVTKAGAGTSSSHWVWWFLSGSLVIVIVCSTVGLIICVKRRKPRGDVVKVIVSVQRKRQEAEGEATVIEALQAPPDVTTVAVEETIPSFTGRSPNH",
  "assay": "FACS, Ab 10 µg/mL then biotinylated BTLA on HVEM-HEK293F",
  "experimental": "Generation of human ‘full-length’ HVEM-transfected HEK293F cells (clone no. 128) is described in Example 1a. Binding of soluble human BTLA, of soluble human CD160, of soluble human LIGHT, and of soluble human TNFβ on surface human HVEM-transfected cells was analysed by FACS analysis. To this end, stable human full-length HVEM-transfected HEK293F cells were put at 10×10⁶ cells/mL in ice-chilled phosphate-buffered saline containing 0.1% BSA (Sigma)/0.05% NaN₃ (PBS/BSA/NaN₃) supplemented with 50 μg/mL human IgGs (blocking possible Fcγ receptors; Sigma) for 10 minutes at 4° C. Then, 10 μL/tube (i.e., 0.1×10⁶ cells) of these cells were incubated with or without 100 μL purified chimeric mouse/human anti-HVEM antibody at 10 μg/mL/tube or a human IgG4/κ (Sigma) negative isotype control at 10 μg/mL/tube for 30 minutes at 4° C. After this (i.e., without washing), cells were subsequently incubated with 1 μg/mL soluble biotinylated human BTLA (Sino Biological Inc), with 10 μg/mL soluble his-tagged human CD160 (Sino Biological Inc), with 1 μg/mL soluble his-tagged human LIGHT (Sino Biological Inc), or with 0.1 μg/mL soluble biotinylated human TNFβ (Sino Biological Inc) in PBS/BSA/NaN₃ for 30 minutes at 4° C. After extensive washing in PBS/BSA/NaN₃, cells were incubated with 1:200 diluted PE-conjugated streptavidin (detection BTLA and TNFβ; Jackson ImmunoResearch) or with biotinylated mouse anti-his antibody (detection CD160 and LIGHT; R&D Systems) at 10 μg/mL for 30 minutes at 4° C. After extensive washing in PBS/BSA/NaN₃, cells were incubated with 1:200 diluted PE-conjugated streptavidin (detection CD160 and LIGHT; Jackson ImmunoResearch) for 30 minutes at 4° C. After extensive washing in PBS/BSA/NaN₃, cells were fixed in 4% formaldehyde in PBS/BSA/NaN₃ for 30 minutes at 4° C. Binding of ligands BTLA, CD160, LIGHT and TNFβ on membrane human HVEM was measured using a flow cytometer (model FACSCalibur; BD Biosciences). For comparison, purified BTLA/HVEM blocking mouse anti-human HVEM antibody counterparts no. 36H12, 45H6, 48H6, 11H7, and 49G4 at 10 μg/mL/tube and a mouse IgG1 (BD Biosciences) negative isotype control at 10 μg/mL/tube were run in parallel.",
  "data": [
    {"binder": "mouse anti-human HVEM antibody no. 36H12 (antibody, mouse IgG1, V domains shown, mouse IgG1/kappa; also called 36H12 (mouse)) VH: EVQLQQSGAGLVKPGASVKLSCTASGFNIKDTYMHWVRQRPEQGLEWIGRIDPATANTKYDPKFQGKATLTTDTSSNTAYLQLSSLTSEDTAVYYCVTYGYDVSWFAYWGLGALVTVSA VL: DVLMTQTPLSLPVSLGDQASISCRSSQSIVHSNGITYLEWYLQKPGQSPKLLIYKVSNRFSGVPDRFSGSGSGTDFTLKISRVEAEDLGVYYCFQGSHVPLTFGAGTKLELK", "values": [
      {"measurement": "% blocking of ligand binding", "value": "> 95", "unit": "%"}
    ]}
  ]
}
